The values below come from PMC10242683, “Catalytic Cycle of the Bifunctional Enzyme Phosphoribosyl-ATP Pyrophosphohydrolase/Phosphoribosyl-AMP Cyclohydrolase” (ACS Catalysis, 2023).

Data set [1] has as its target T1, phosphoribosyl-ATP pyrophosphohydrolase/phosphoribosyl-AMP cyclohydrolase (AbHisIE) (Acinetobacter baumannii, UniProt V5VH18).
T1 construct: gene hisIE; full-length AbHisIE (A. baumannii strain ATCC17978), recombinant
T1 sequence (V5VH18 1-257): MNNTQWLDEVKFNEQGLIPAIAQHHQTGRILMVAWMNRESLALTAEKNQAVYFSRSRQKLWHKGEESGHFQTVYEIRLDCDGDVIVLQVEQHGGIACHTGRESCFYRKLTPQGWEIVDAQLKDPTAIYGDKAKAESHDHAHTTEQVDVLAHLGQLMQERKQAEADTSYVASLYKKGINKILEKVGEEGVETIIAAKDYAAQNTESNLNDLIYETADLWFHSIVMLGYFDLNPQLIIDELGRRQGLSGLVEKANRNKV
Briefly: initial rates of ProFAR formation from PRATP at […] nm, dose-response with purified AbHisIE. The format is biochemical.

Substrate in data set [2]: N=c1c2ncn([C@@H]3O[C@H](COP(=O)(O)O)[C@@H](O)[C@H]3O)c2ncn1[C@@H]1O[C@H](COP(=O)(O)O)[C@@H](O)[C@H]1O
Briefly: purified protein. As to conditions: Zn2+ (HisI-like domain) cyclohydrolase active site in the N-terminal HisI-like domain. It counts as biochemical, Acinetobacter baumannii.

Substrate in data set [3]: N=c1c2ncn([C@@H]3O[C@H](COP(=O)(O)OP(=O)(O)OP(=O)(O)O)[C@@H](O)[C@H]3O)c2ncn1[C@@H]1O[C@H](COP(=O)(O)O)[C@@H](O)[C@H]1O
Briefly: purified protein. Particulars: Mg2+ (HisE-like domain); Zn2+ (HisI-like domain) pyrophosphohydrolase active site in the C-terminal HisE-like domain. The format is biochemical, Acinetobacter baumannii.

`N=c1c2ncn([C@@H]3O[C@H](COP(=O)(O)OP(=O)(O)O)[C@@H](O)[C@H]3O)c2ncn1[C@@H]1O[C@H](COP(=O)(O)O)[C@@H](O)[C@H]1O` [PRADP]: inhibition in data set [1] was half-maximal at 52 ± 4 µM (IC50).

B1: phosphoribosyl-ATP pyrophosphohydrolase/phosphoribosyl-AMP cyclohydrolase (AbHisIE) (Acinetobacter baumannii) (protein)
chain: T1 sequence (V5VH18 1-257)
notes: full-length AbHisIE (A. baumannii strain ATCC17978), recombinant
With B1, the Michaelis constant (Km) stood at 11 µM in the data set “purified protein [2]” and 4.0 ± 0.7 µM in the data set “purified protein [3]”. In “purified protein [3]”, the kcat turned out to be 5.6 ± 0.3 s⁻¹.
